Reference: CN107540747A

Target: 人DLL4分子 (full-length human DLL4 on the cell surface) (human) (UniProt Q9NR61)
Assay: indirect immunofluorescence, flow cytometry on CHO/DLL4 cells

Chain of UniProt Q9NR61 (Q9NR61 27-685): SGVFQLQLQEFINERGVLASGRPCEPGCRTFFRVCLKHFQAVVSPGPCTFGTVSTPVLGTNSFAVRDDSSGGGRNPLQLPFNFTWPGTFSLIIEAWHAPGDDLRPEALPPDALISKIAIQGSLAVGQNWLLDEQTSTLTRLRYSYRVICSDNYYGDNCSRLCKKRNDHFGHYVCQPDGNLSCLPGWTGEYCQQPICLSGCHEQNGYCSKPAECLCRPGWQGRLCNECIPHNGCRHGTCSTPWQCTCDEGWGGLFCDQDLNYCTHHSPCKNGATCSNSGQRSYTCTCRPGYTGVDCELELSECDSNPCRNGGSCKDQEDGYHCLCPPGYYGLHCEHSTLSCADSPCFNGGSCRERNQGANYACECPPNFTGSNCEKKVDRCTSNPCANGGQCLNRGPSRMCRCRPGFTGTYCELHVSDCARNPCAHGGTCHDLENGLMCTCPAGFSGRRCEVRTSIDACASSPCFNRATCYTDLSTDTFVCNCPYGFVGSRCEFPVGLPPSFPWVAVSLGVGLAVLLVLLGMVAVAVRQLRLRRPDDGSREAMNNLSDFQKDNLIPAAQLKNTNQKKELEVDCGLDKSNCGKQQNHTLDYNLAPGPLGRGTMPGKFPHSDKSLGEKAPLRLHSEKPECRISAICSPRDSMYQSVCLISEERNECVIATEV

效价 (titer (1:x dilution)): > 10000
B1: 抗人DLL4单克隆抗体6F12 (antibody, mouse IgG2b, V domains shown)
VH: EVHVKQSGPELVKPGASVKMSCKASGYTFTSYLLHWVKQKPGQGLEWIGYIIPYNDGTRYNEKFKGKATLTSDKSSNTAYMELSSLTSEDSAVYYCAREGTGTGAFDYWGQGTSLTVSS
VL: DIVLTQSPAIMSASPGEKVTMTCRASSSVNYMYWYQQKPGSSPRLLIYDTSNLASGVPVRFSGSGSGTSYSLTISRMEAEDAATYYCQQWSSYPYTFGGGTKLEIK
